Data on 2 molecules can be found in publication PMC3057708 (Molecular Biology of the Cell, 2011).

A value given as a limit tells only on which side of the number the result lay.

B1: GST-Sec4 (natural protein)
chain: MSGLRTVSASSGNGKSYDSIMKILLIGDSGVGKSCLLVRFVEDKFNPSFITTIGIDFKIKTVDINGKKVKLQLWDTAGQERFRTITTAYYRGAMGIILVYDVTDERTFTNIKQWFKTVNEHANDEAQLLLVGNKSDMETRVVTADQGEALAKELGIPFIESSAKNDDNVNEIFFTLAKLIQEKIDSNKLVGVGNGKEGNISINSGSGNSSKSNCC
B2: purified full-length Sro7, soluble (natural protein)
chain: MFGSKRLKNVKEAFKSLKGQNSETPIENSKASFKSKNSKTSTISKDAKSSSSLKIPISSNNKNKIFSLAETNKYGMSSKPIAAAFDFTQNLLAIATVTGEVHIYGQQQVEVVIKLEDRSAIKEMRFVKGIYLVVINAKDTVYVLSLYSQKVLTTVFVPGKITSIDTDASLDWMLIGLQNGSMIVYDIDRDQLSSFKLDNLQKSSFFPAARLSPIVSIQWNPRDIGTVLISYEYVTLTYSLVENEIKQSFIYELPPFAPGGDFSEKTNEKRTPKVIQSLYHPNSLHIITIHEDNSLVFWDANSGHMIMARTVFETEINVPQPDYIRDSSTNAAKISKVYWMCENNPEYTSLLISHKSISRGDNQSLTMIDLGYTPRYSITSYEGMKNYYANPKQMKIFPLPTNVPIVNILPIPRQSPYFAGCHNPGLILLILGNGEIETMLYPSGIFTDKASLFPQNLSWLRPLATTSMAASVPNKLWLGALSAAQNKDYLLKGGVRTKRQKLPAEYGTAFITGHSNGSVRIYDASHGDIQDNASFEVNLSRTLNKAKELAVDKISFAAETLELAVSIETGDVVLFKYEVNQFYSVENRPESGDLEMNFRRFSLNNTNGVLVDVRDRAPTGVRQGFMPSTAVHANKGKTSAINNSNIGFVGIAYAAGSLMLIDRRGPAIIYMENIREISGAQSACVTCIEFVIMEYGDDGYSSILMVCGTDMGEVITYKILPASGGKFDVQLMDITNVTSKGPIHKIDAFSKETKSSCLATIPKMQNLSKGLCIPGIVLITGFDDIRLITLGKSKSTHKGFKYPLAATGLSYISTVEKNNDRKNLTVIITLEINGHLRVFTIPDFKEQMSEHIPFPIAAKYITESSVLRNGDIAIRVSEFQASLFSTVKEQDTLAPVSDTLYINGIRIPYRPQVNSLQWARGTVYCTPAQLNELLGGVNRPASKYKESIIAEGSFSERSSDDNNANHPEHQYTKPTRKGRNSSYGVLRNVSRAVETRWDAVEDRFNDYATAMGETMNEAVEQTGKDVMKGALGF

Assay [1] has as its target B2. The assay can be described thus: pull-down.
The assay “GST-Sec4” deals with B1. The assay is described as follows: pull-down.

Turning to B1, the binding result in assay [1] is recorded as “binds”.

For the molecule B2, in the assay with GST-Sec4, the “fold binding to GTPγS-bound Sec4 over GDP-bound Sec4” value is above 5 fold.
